Here are results for 7 molecules from US20250270301A1 (GEN2 NEUROSCIENCE, published 2025).

Assay [1] concerns the target T1, full length recombinant human 2N4R tau (human, UniProt P10636 1-758).
T1 construct: bought from rPeptide; pHrodo Red maleimide-labelled where it stands in uptake assays; also called tau1-441; full length tau
Nature of the assay: ELISA, tau coated on the plate. Here is the method:
ELISA plates were coated with antigen (non-conjugated antigen peptide (Antigen peptide ([C]-[…]-amide (SEQ ID NO: 13)) or full length 2N4R tau (SEQ ID NO: 2), 100 ng/well; or 1% BSA in 1×TBS) in 1× carbonate-bicarbonate buffer for 1 hour at 37° C. Antigen was removed from wells and the plates were then blocked for 1 hour at RT with 5% dried milk in 1×TBS. Blocking solution was removed, HEK293F cell supernatant (10 μg/mL, to 0.0001 μg/mL in 1% BSA/1×TBS) was added to relevant wells, and plates were incubated for 1 hour at RT with gentle shaking. Plates were then washed four times with TBS/0.1% Tween (TBST). Anti-rabbit IgG-HRP antibody (Sigma, St Louis, MO, USA), diluted 1:5000 in 5% milk/TBS, was added to each well and plates were incubated for 1 hour at RT with gentle shaking before being washed four times with TBST. 3,3′,5,5′-tetramethylbenzidine (TMB) ELISA solution was added to each well and plates were incubated for 15 mins at RT. An equal volume of 1 M sulfuric acid was added to each well and OD was measured at 450 nm.

Assay [2] deals with T1, full length recombinant human 2N4R tau. Nature of the assay: SPR MCK, IgG on Protein A, tau in flow. As to the method: Anti-tau IgGs bind to full length 2N4R tau (SEQ ID NO: 2) with high affinity. […] It is predicted that the binding affinity of these antibodies would be equivalent to any tau species containing the epitope corresponding to amino acids 369-381 of 2N4R tau (SEQ ID NO: 1), if this sequence is accessible.
19.2 Assessment of antibody binding to tau: Binding of anti-tau hIgG1 to full length recombinant 2N4R tau (Rpeptide; SEQ ID NO: 2) was assessed using the Biacore T200 (GE Healthcare, Chicago, IL, USA) running Biacore T200 Evaluation Software V2.0.1. hIgG1 were immobilised on a Protein A capture sensor chip in running buffer (HBS-EP+ buffer containing 1 mg/mL BSA) at 25° C., captured to ˜50 RU at 10 μL/min. For multi-cycle kinetics experiments (clone #66), recombinant 2N4R tau was flowed at concentrations ranging from 0.39 nM to 50 nM in running buffer at 40 μL/min, with an association time of 150 s and a dissociation time of 250 s. Optimised conditions for multiple-cycle kinetics experiments were applied to clone #44: recombinant 2N4R tau was flowed at concentrations ranging from 0.39 nM to 12.5 nM (2-fold dilutions) with an association time of 60 s and a dissociation time of 200 s (cropped to 65 s to improve analysis fit). Curves were compared to a reference cell that was mock immobilized (no antibody present).

For assay [3] the target is unchanged. Nature of the assay: SPR SCK, IgG on Protein A, tau in flow. The essentials:
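Antibodies were captured to ~50 RU on a Protein A chip in HBS-EP+ with 1 mg/mL BSA at 25 °C. Tau was injected by single-cycle kinetics at 1.25–10 nM (2-fold), with 60 s association and 200 s dissociation. Signals were referenced to a mock-immobilized cell.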

For assay [4] the target is unchanged. Nature of the assay: SPR MCK, IgG on Protein A, tau in flow. The source holds these as a separate data set.
The target is the same in assay [5]. Nature of the assay: SPR SCK, IgG on Protein A, tau in flow. This is another data set of the same source.
Assay [6] shares this target. Nature of the assay: SPR MCK, IgG on Protein A, tau in flow at 100 µL/min; on the border of mass transport limitation.
The target is the same in assay [7]. Nature of the assay: SPR MCK, IgG on Protein A, tau in flow at 100 µL/min.
For assay [8], the target named is aggregated (oligomeric) P301S 2N4R tau, pHrodo-labelled (human, UniProt P10636 1-758, pHrodo Red maleimide label). Nature of the assay: cell-based or functional assay.
The target of assay [9] is monomeric P301S 2N4R tau, pHrodo-labelled (human, UniProt P10636 1-758, pHrodo Red maleimide label). Nature of the assay: cell-based or functional assay.
In assay [10] the target is T2, Bovine serum albumin (bovine, UniProt P02769 25-607).
T2 construct: also called BSA
Nature of the assay: ELISA on 1% BSA, HEK supernatant, anti-human IgG-HRP, n=1.

The target of assay [11] is T2, Bovine serum albumin. The assay is described as above. The essentials:
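Wells coated with antigen, blocked 1 h RT in 5% milk/TBS; HEK293 transient-transfection supernatants applied at 1:100 in 1% BSA/TBS for 1 h RT. Bound hIgG1 detected with anti-human IgG-HRP (1:2000), TMB 15 min, acid stop, OD450; single replicate.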
This is another data set of the same source.

Assay [12] addresses T1, full length recombinant human 2N4R tau. Nature of the assay: ELISA on 2N4R tau (100 ng/well), HEK supernatant, anti-human IgG-HRP, n=1. As to the method:
FIG. 7. A panel of humanised anti-tau IgG bind to full length recombinant 2N4R tau in an ELISA format. Supernatants from HEK cells transiently transfected with each IgG clone were tested at 1:100 for binding to full length recombinant 2N4R tau (solid bars). […] Binding of anti-tau hIgG1 was detected using an HRP-conjugated anti-human secondary antibody and data are shown from a representative experiment (n=1 replicate).
Antigen was removed from wells and the plates were then blocked for 1 hour at RT with 5% dried milk in 1×TBS. Blocking solution was removed, HEK293 cell supernatant (1:100 in 1% BSA/1×TBS) was added to relevant wells, and plates were incubated for 1 hour at RT with gentle shaking. Plates were then washed four times with TBS/0.1% Tween (TBST). Goat anti-human IgG-HRP antibody (Thermo Fisher Scientific, Waltham, MA, USA), diluted 1:2000 in 5% milk/TBS, was added to each well and plates were incubated for 1 hour at RT with gentle shaking before being washed four times with TBST. 3,3′,5,5′-tetramethylbenzidine (TMB) ELISA solution was added to each well and plates were incubated for 15 mins at RT. An equal volume of 1 M sulfuric acid was added to each well and OD was measured at 450 nm.
(In general: ELISA stands for enzyme-linked immunosorbent assay.)

Changes are numbered by the printed parent chain. Read-outs that look alike come from different tables or passages of the source.

T1 sequence (P10636 other isoform, or with tags, fused parts or gaps limits assumed): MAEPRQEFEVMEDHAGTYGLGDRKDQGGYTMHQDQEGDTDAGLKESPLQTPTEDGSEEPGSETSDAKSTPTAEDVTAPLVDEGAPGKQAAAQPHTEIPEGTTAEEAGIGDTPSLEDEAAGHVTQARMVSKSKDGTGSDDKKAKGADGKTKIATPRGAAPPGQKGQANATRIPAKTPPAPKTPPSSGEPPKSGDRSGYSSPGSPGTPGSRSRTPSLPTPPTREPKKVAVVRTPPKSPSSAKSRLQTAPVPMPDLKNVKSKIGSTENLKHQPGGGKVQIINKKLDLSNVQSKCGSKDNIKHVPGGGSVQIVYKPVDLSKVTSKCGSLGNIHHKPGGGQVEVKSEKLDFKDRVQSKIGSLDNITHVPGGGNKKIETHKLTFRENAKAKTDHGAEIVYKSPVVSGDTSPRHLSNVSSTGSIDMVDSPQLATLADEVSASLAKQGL
T2 sequence (P02769 25-607 limits assumed): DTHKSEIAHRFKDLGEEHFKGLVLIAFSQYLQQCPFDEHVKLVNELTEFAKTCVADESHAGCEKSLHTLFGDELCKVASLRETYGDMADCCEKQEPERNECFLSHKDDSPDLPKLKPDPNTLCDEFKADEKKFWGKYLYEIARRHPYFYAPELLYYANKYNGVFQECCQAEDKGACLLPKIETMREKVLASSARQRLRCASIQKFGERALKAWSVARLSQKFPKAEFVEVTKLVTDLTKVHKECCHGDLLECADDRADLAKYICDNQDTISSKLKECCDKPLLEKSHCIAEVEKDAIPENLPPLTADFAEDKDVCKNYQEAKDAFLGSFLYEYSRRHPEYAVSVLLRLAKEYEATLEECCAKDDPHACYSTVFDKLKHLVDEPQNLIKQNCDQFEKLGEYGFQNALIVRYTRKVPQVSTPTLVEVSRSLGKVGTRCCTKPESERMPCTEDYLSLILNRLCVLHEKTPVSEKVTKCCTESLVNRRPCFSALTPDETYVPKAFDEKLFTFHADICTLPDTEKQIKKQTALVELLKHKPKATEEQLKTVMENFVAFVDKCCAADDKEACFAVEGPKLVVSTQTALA
monomeric P301S 2N4R tau, pHrodo-labelled, sequence (P10636 other isoform, or with tags, fused parts or gaps P301S P301S): as the sequence (P10636 other isoform, or with tags, fused parts or gaps limits assumed) above, with P301S counted along it
aggregated (oligomeric) P301S 2N4R tau, pHrodo-labelled, sequence (P10636 other isoform, or with tags, fused parts or gaps P301S P301S): as the sequence (P10636 other isoform, or with tags, fused parts or gaps limits assumed) above, with P301S counted along it

B1: Clone 1 (#66) rabbit monoclonal IgG (antibody, V domains shown)
VH: QSVEESGGRLVTPGTPLTLTCTVSGIDLSSNAMIWVRQAPGKGLEYIGNIGTHGTTYYASWAKGRFTISKTSTTVDLKMTSPTTEDTATYFCSRGDIWGPGTLVTVSL
VL: AQVLTQTESPVSAPLRGTVTINCQASQSVDDNNNLAWYQQKPGQPPKLLIYEASTLASGVSSRFKGSGSGTQFTLTISDVQCDDAATYYCLGEFSCSSADCVVFGGGTEVVVKG
notes: rabbit IgG; also called clone #66; B9
As for B1, the EC50 (usually the concentration at which the effect is half-maximal) in [1] was 0.82 nM.

B2: Clone #66 (Clone 1) chimeric human IgG1 (antibody, V domains shown)
VH: B1 VH
VL: B1 VL
notes: rabbit VH and VK on human IgG1; also called #66 hIgG1
Consider B2, for which, in assay [2], the dissociation constant Kd (usually a measure of binding affinity in units of concentration) turned out to be 2.39 nM; the koff (in general, the first-order rate constant of dissociation) stood at 0.00478 s⁻¹; the kon (as a rule, the rate constant with which the complex forms) was 2.01e+06 M⁻¹ s⁻¹.

B3: #44 VH0VK0 chimeric human IgG1 (antibody, V domains shown)
VH: QSVEESGGRLVTPGTPLTLTCTVSGIDLSSYAMAWVRQAPGKGLEWIGCIDRRGGTFYASWVKGRFTISKTSTTVDLKMTSLTTEDTATYFCARDSGAFDPWGPGTLVTVSS
VL: QIVMTQTPSSVSAAVGGTVTIKCQASQSVYDNYLAWYQQKPGQPPKLLIHAASNLASRVPSRFKGSGSGTQFTLTISDVQCDDAATYYCLGEFSCTTTDCNVFGGGTEVVVK
notes: rabbit VH and VK on human IgG1; also called VH0Vκ0; Clone #44 hIgG1
Consider B3, for which, in assay [3], the Kd came to 3.83 nM, the “Relative KD (to VH0VK0)” value came to 1, the koff amounted to 0.0126 s⁻¹ and the kon is 3.28e+06 M⁻¹ s⁻¹. Further, in assay [4], the Kd came to 3.25 nM, the “Relative KD (to VH0VK0)” value was determined as 1, the koff came out at 0.0107 s⁻¹ and the kon worked out at 3.3e+06 M⁻¹ s⁻¹. In addition, in assay [2], the Kd was 4.68 nM, the koff was determined as 0.00968 s⁻¹ and the kon worked out at 2.07e+06 M⁻¹ s⁻¹.

B4: Clone 2 (#44) rabbit monoclonal IgG (antibody, V domains shown)
VH: B3 VH
VL: QIVMTQTPSSVSAAVGGTVTIKCQASQSVYDNYLAWYQQKPGQPPKLLIHAASNLASRVPSRFKGSGSGTQFTLTISDVQCDDAATYYCLGEFSCTTTDCNVFGGGTEVVVKG
notes: rabbit IgG; also called clone #44; D6
In the case of B4, in [1], the concentration for a half-maximal effect (EC50) came to 1.05 nM.

B5: #44_VH4VK4_H04/pVL (antibody, V domains shown)
VH: QVQLQESGPGLVKPSETLSLTCTVSGIDLSSYAMAWVRQAPGKGLEWIGCIDRRGGTFYASWVKGRFTISKDTSKTTVDLQMTSLTAEDTATYFCARDAGSFHPWGQGTLVTVSS
VL: DIQMTQSPSSLSASVGDRVTITCQASQSVYDNYLAWYQQKPGQPPKLLIHAASNLASGVPSRFSGSGSGTEFTLTISSLQPDDFATYYCLGEFSCTTTDCNVFGGGTKVEIK
notes: also called VH04/pVL; Clone VH4_H04
In the case of B5, in [5], the “Fold change (KD, to pVH/pVL)” value is 11.1; the Kd worked out at 0.593 nM; the koff is 0.0017 s⁻¹; the association rate constant (kon) was 2.86e+06 M⁻¹ s⁻¹. For the same molecule, the Kd in assay [6] was 0.736 nM. In [7], the “Fold improvement (KD, to pVH/pVL)” value was determined as 10.5; the dissociation rate constant (koff) was 0.00185 s⁻¹; the kon came to 2.51e+06 M⁻¹ s⁻¹. Also, in [8], the “inhibition of aggregated tau uptake into human astrocytes” value turned out to be 32.6% and the “inhibition of aggregated tau uptake into human iPSC-derived neurons” value was found to be 65.5%. For the same molecule, in assay [9], the “inhibition of monomeric tau uptake into human astrocytes” value came to 35.6% and the “inhibition of monomeric tau uptake into human iPSC-derived neurons” value was determined as 81.8%. Also, the binding result in assay [10] is “no binding (tested: 30 ng/ml (legend 1:100))”.

B6: #44 VH6VK1 humanised hIgG1 (antibody, V domains shown)
VH: QVQLQESGPGLVKPSETLSLTCTVSGIDLSSYAMSWVRQAPGKGLEWVSCIDRRGGTFYASWVKGRFTISRDNSKNTLDLQMTSLTAEDTATYYCARDSGAFDPWGQGTLVTVSS
VL: B5 VL with D1Q, Q3V, G58R, S64K, P81C, K108E, E110V
notes: also called VH6Vκ1
As for B6, the binding result in [11] and in assay [12] was “no binding (tested: supernatant 1:100)” in each case.

B7: #44_VH4VK4_H06/pVL (antibody, V domains shown)
VH: B5 VH with C50V, R53A, R54A, G56H, A99S, S101T, H103D
VL: B5 VL
notes: also called Clone VH4_H06; #44_VH4_H06
Take B7: in assay [5], the “Fold change (KD, to pVH/pVL)” value is 5.77; the dissociation constant Kd stood at 1.14 nM; the koff turned out to be 0.00444 s⁻¹; the kon turned out to be 3.9e+06 M⁻¹ s⁻¹. Besides, the Kd in assay [6] was 1.53 nM. Besides, in assay [7], the “Fold improvement (KD, to pVH/pVL)” value was found to be 5; the off-rate constant (koff) stood at 0.00524 s⁻¹; the kon was 3.43e+06 M⁻¹ s⁻¹. Also, in assay [8], the “inhibition of aggregated tau uptake into human astrocytes” value is 39.1% and the “inhibition of aggregated tau uptake into human iPSC-derived neurons” value turned out to be 55%. Further, in assay [9], the “inhibition of monomeric tau uptake into human astrocytes” value was found to be 35.1% and the “inhibition of monomeric tau uptake into human iPSC-derived neurons” value is 71%. In assay [10], the binding result is recorded as “no binding (tested: 30 ng/ml (legend 1:100))”.
